In the test the target is T1, human IL-11 (human, UniProt P20809 22-199).
T1 sequence (looked up): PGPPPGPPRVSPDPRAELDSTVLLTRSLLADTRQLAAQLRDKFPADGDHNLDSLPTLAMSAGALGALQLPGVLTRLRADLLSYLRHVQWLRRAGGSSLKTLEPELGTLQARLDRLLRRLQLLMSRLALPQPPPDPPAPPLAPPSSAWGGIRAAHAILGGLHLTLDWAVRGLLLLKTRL
The experiment in a line: cell-based or functional assay.
Note: test concentration or dose not given here.

B1: YU100-H06 (scFv, not shown: a dimerising Fc or GST)
scFv: QVQLVESGGGVVQPGRSLRLSCAASGFTFSSYGMHWVRQAPGKGLEWVAVISYDGSNKYYADSVKGRFTISRDNSKNTLYLQMNSLRAEDTAVYYCAKIGATDPLDYWGQGTLVTVSSGSASAPKLEEGEFSEARIQSALTQPRSVSGSPGQSVTISCTGTSSDVGGYNYVSWYQQHPGKAPKLMIYDVTKRPSGVPDRFSGSKSGNTASLTISGLQAEDEADYYCSSYAGSYTWVFGGGTKLTVL
Regarding B1, the “MMP2 production (ng/ml), TGFB1-stimulated human atrial fibroblasts, Experiment 1 (NEG 42.7, POS 70.2)” value (from here on “MMP2 production (ng/ml) … (NEG 42.7, POS 70.2)”) turned out to be 52.3 ng/mL and the “MMP2 production (ng/ml), TGFB1-stimulated human atrial fibroblasts, Experiment 2 (NEG 36.2, POS 62.3)” value (“MMP2 production (ng/ml) … (NEG 36.2, POS 62.3)” for short) came out at 43.9 ng/mL.

B2: YU100-F02 (scFv)
scFv: EVQLVESGGGVVQPGRSLRLSCAASGFTFSSYGMHWVRQAPGKGLEWVAVISYDGSNKYYADSVKGRFTISRDNSKNTLYLQMNSLRAEDTAVYYCAKIGATDPLDYWGQGTLVTVSSGSASAPKLEEGEFSEARVQSALTQPRSVSGSPGQSVTISCTGTSSDVGGYNYVSWYQQHPGKAPKLMIYDVTKRPSGVPDRFSGSKSGNTASLTISGLQADDEADYYCCSYAGSYTWIFGGGTKLTVL
In the case of B2, the “MMP2 production (ng/ml) … (NEG 42.7, POS 70.2)” value was found to be 51.2 ng/mL and the “MMP2 production (ng/ml) … (NEG 36.2, POS 62.3)” value is 43.5 ng/mL.

B3: YU100-A11 (scFv)
scFv: EVQLQQSGGGVVQPGRSLRLSCAASGFTFSSYGMHWVRQAPGKGLEWVAVISYDGSNKYYADSVKGRFTISRDNSKNTLYLQMNSLRAEDTAVYYCAKIGATDPLDYWGQGTLVTVSSGSASAPKLEEGEFSEARVQSALTQPRSVSGSPGQSVTISCTGTSSDVGGYNYVSWYQQHPGKAPKLMIYDVSKRPSGVPDRFSGSKSGNTASLTISGLQAEDEADYYCCSYAGSYTWVFGGGTKLTVL
Regarding B3, the “MMP2 production (ng/ml) … (NEG 42.7, POS 70.2)” value turned out to be 51.6 ng/mL and the “MMP2 production (ng/ml) … (NEG 36.2, POS 62.3)” value came out at 45.7 ng/mL.

B4: YU100-E12 (scFv)
scFv: QVQLVESGGGVVQPGRSLRLSCAASGFTFSSYGMHWVRQAPGKGLEWVAVISYDGSNKYYADSVKGRFTISRDNSKNTLYLQMNSLRAEDTAVYYCAKIGATDPLDYWGQGTLVTVSSGSASAPKLEEGEFSEARVQSALTQPASVSGSPGQSITISCTGTSSDVGGYNYVSWYQQHPGTAPKLMIYDVSNRPSGVSNRFSGSKSGNTASLTISGLQAEDEADYYCSSYTSSTTWVFGGGTKLTVL
For B4, the “MMP2 production (ng/ml) … (NEG 42.7, POS 70.2)” value worked out at 56 ng/mL and the “MMP2 production (ng/ml) … (NEG 36.2, POS 62.3)” value turned out to be 47.9 ng/mL.

B5: YU100-G01 (scFv)
scFv: QVQLVQSGGGVVQPGRSLRLSCAASGFTFSSYGMHWVRQAPGKGLEWVAVISYDGSNKYYADSVKGRFTISRDNSKNTLYLQMNSLRAEDTAVYYCAKIGATDPLDYWGQGTLVTVSSGSASAPKLEEGEFSEARVQSALTQPRSVSASPGQSVTISCTGTSSDVGAYNYVSWYQQHPGKAPKLMLYDVNKRPSGVPDRFSGSKSGNTASLTISRLQAEDEADYYCCSYAGSYTWVFGGGTKLTVL
B5: the “MMP2 production (ng/ml) … (NEG 42.7, POS 70.2)” value amounted to 56.6 ng/mL and the “MMP2 production (ng/ml) … (NEG 36.2, POS 62.3)” value was 49.7 ng/mL.

B6: YU100-A12 (scFv)
scFv: QVQLVESGGGVVQPGRSLRLSCAASGFTFSSYGMHWVRQAPGKGLEWVAVISYDGSNKYYADSVKGRFTISRDNSKNTLYLQMNSLRAEDTAVYYCAKIGATDPLDYWGQGTLVTVSSGSASAPKLEEGEFSEARVLPVLTQPRSVSGSPGQSVTISCTGTSSDVGGYNYVSWYQQHPGKAPKLMIYDVSKRPSGVPDRFSGSKSGDTASLTISGLQAEDEADYYCSSYAGSYTWVFGGGTKLTVL
B6: the “MMP2 production (ng/ml) … (NEG 42.7, POS 70.2)” value came out at 59.5 ng/mL and the “MMP2 production (ng/ml) … (NEG 36.2, POS 62.3)” value turned out to be 50.4 ng/mL.

B7: YU100-B07 (scFv)
scFv: QVQLVESGGGVVQPGRSLRLSCAASGFTFSSYGMHWVRQAPGKGLEWVAVISYDGSNKYYADSVKGRFTISRDNSKNTLYLQMNSLRAEDTAVYYCAKIGATDPLDYWGQGTLVTVSSGSASAPKLEEGEFSEARVQSALTQPRSVSGSPGQSVTMSCTGTSRDVGGYNYVSWYQHHPGKAPKLMIYDVSKRPSGVPDRFSGSKSGNTASLTISELQAEDEADYYCCSYAGSYTWVFGGGTKLTVL
On to B7, for which the “MMP2 production (ng/ml) … (NEG 42.7, POS 70.2)” value stood at 55.9 ng/mL and the “MMP2 production (ng/ml) … (NEG 36.2, POS 62.3)” value was 47.4 ng/mL.

B8: YU100-E07 (scFv)
scFv: QVQLQESGGGVVQPGRSLRLSCAASGFTFSSYGMHWVRQAPGKGLEWVAVISYDGSNRYYADSVKGRFAISRDNSKNTLYLQMNSLRAEDTAVYYCAKIGATDPLDYWGQGTLVTVSSGSASAPKLEEGEFSEARVQSALTQPRSVSGSPGQSVTISCTGTSSDVGGYDYVSWYQQHPGKAPELMIYDVTKRPSGVADRFSGSKSGNTASLTISGLQAEDEADYYCCSYAGRYTWVFGGGTKLTVL
With B8, the “MMP2 production (ng/ml) … (NEG 42.7, POS 70.2)” value worked out at 52.1 ng/mL and the “MMP2 production (ng/ml) … (NEG 36.2, POS 62.3)” value stood at 46.5 ng/mL.

B9: YU100-B03 (scFv)
scFv: QVQLVQSGGGVVQPGRSLRLSCAASGFTFSSYGMHWVRQAPGKGLEWVAVISYDGSNKYYADSVKGRFTISRDNSKNTLYLQMNSLRAEDTAVYYCAKIGATDPLDYWGQGTLVTVSSGSASAPKLEEGEFSEARVQSVLTQPRSVSGSPGRSVTISCTGTSSDVGGYNYVSWYQQHPGKAPKLTLYDVVKRPSGVPDRYSGSKSGNTASLTISGLQAEDEADYYCCSYAGGYTWVFGGGTKVTVV
Regarding B9, the “MMP2 production (ng/ml) … (NEG 42.7, POS 70.2)” value was determined as 47.3 ng/mL and the “MMP2 production (ng/ml) … (NEG 36.2, POS 62.3)” value came out at 46.8 ng/mL.

B10: YU100-B06 (scFv)
scFv: QVQLVESGGGVVQPGRSLRLSCAASGFTFSSYGMHWVRQAPGKGLEWVAVISYDGSNKYYADSVKSRFTISRDNSKNTLYLQMNSLRAEDTAVYYCAKIGATDPLDYWGQGTLVTVSSGSASAPKLEEGEFSEARVQSALTQPASVSGSPGQSITISCTGTSSDVGGYNYVSWYQQHPGKAPKLMIYDVSKRPSGVPDRFSGSKSGNTASLTISGLQAEDEADYYCNSYAGSYTWVFGGGTKLTVL
Take B10: the “MMP2 production (ng/ml) … (NEG 42.7, POS 70.2)” value is 47.6 ng/mL and the “MMP2 production (ng/ml) … (NEG 36.2, POS 62.3)” value was determined as 49.6 ng/mL.

B11: YU100-E10 (scFv)
scFv: QVQLVQSGGGVVQPGRSLRLSCAASGFTFSSYGMHWVRQAPGKGLEWVAVISYDGSNKYYADSVKGRFTISRDNSKNTLYLQMNSLRAEDTAVYYCAKIGATDPLDYWGQGTLVTVSSGSASAPKLEEGEFSEARVQSALTQPRSVSGSPGQSVTISCTGTSSDVGGYNYVSWYQQHPGKAPKLMIFDVSQRPSGVPDRFSASKSGNTASLTISGLQAEDEADYYCCSYAGSYTWVFGGGTKLTVL
B11: the “MMP2 production (ng/ml) … (NEG 42.7, POS 70.2)” value is 56.1 ng/mL and the “MMP2 production (ng/ml) … (NEG 36.2, POS 62.3)” value is 47 ng/mL.

B12: YU100-B01 (scFv)
scFv: QVQLVQSGGGVVQPGRSLRLSCAASGFTFSSYGMHWVRQAPGKGLEWVAVISYDGSNKYYADSVKGRFTISRDNSKNTLYLQMNSLRAEDTAVYYCAKIGATDPLDYWGQGTLVTVSSGSASAPKLEEGEFSEARVQSALTQPRSVSGSPGQSVTISCTGTNTDVGAYNYVSWYQQYPGKAPKLIIYDVSKRPSGVPDRFSGSKSGNTASLTISGLQAEDEADYYCCSYAGSYSWVFGGGTKLTVL
As to B12, the “MMP2 production (ng/ml) … (NEG 42.7, POS 70.2)” value was 52.5 ng/mL and the “MMP2 production (ng/ml) … (NEG 36.2, POS 62.3)” value is 40 ng/mL.

The values are drawn from patent US20180186871A1 (SINGAPORE HEALTH SERVICES PTE, published 2018).
